Measured values from US20140010832A1.

Key:
Assay in all cases: ELISA; cytokine coated, ECM protein 0.02 to 320 nM, KD by non-linear fit
Fibrinogen = biological target: Fibrinogen
Osteopontin = biological target: Osteopontin
Tenascin C = biological target: Tenascin C
Vitronectin = biological target: Vitronectin
Fibronectin = biological target: Fibronectin
Sequence of Fibronectin (P02751 32-2477): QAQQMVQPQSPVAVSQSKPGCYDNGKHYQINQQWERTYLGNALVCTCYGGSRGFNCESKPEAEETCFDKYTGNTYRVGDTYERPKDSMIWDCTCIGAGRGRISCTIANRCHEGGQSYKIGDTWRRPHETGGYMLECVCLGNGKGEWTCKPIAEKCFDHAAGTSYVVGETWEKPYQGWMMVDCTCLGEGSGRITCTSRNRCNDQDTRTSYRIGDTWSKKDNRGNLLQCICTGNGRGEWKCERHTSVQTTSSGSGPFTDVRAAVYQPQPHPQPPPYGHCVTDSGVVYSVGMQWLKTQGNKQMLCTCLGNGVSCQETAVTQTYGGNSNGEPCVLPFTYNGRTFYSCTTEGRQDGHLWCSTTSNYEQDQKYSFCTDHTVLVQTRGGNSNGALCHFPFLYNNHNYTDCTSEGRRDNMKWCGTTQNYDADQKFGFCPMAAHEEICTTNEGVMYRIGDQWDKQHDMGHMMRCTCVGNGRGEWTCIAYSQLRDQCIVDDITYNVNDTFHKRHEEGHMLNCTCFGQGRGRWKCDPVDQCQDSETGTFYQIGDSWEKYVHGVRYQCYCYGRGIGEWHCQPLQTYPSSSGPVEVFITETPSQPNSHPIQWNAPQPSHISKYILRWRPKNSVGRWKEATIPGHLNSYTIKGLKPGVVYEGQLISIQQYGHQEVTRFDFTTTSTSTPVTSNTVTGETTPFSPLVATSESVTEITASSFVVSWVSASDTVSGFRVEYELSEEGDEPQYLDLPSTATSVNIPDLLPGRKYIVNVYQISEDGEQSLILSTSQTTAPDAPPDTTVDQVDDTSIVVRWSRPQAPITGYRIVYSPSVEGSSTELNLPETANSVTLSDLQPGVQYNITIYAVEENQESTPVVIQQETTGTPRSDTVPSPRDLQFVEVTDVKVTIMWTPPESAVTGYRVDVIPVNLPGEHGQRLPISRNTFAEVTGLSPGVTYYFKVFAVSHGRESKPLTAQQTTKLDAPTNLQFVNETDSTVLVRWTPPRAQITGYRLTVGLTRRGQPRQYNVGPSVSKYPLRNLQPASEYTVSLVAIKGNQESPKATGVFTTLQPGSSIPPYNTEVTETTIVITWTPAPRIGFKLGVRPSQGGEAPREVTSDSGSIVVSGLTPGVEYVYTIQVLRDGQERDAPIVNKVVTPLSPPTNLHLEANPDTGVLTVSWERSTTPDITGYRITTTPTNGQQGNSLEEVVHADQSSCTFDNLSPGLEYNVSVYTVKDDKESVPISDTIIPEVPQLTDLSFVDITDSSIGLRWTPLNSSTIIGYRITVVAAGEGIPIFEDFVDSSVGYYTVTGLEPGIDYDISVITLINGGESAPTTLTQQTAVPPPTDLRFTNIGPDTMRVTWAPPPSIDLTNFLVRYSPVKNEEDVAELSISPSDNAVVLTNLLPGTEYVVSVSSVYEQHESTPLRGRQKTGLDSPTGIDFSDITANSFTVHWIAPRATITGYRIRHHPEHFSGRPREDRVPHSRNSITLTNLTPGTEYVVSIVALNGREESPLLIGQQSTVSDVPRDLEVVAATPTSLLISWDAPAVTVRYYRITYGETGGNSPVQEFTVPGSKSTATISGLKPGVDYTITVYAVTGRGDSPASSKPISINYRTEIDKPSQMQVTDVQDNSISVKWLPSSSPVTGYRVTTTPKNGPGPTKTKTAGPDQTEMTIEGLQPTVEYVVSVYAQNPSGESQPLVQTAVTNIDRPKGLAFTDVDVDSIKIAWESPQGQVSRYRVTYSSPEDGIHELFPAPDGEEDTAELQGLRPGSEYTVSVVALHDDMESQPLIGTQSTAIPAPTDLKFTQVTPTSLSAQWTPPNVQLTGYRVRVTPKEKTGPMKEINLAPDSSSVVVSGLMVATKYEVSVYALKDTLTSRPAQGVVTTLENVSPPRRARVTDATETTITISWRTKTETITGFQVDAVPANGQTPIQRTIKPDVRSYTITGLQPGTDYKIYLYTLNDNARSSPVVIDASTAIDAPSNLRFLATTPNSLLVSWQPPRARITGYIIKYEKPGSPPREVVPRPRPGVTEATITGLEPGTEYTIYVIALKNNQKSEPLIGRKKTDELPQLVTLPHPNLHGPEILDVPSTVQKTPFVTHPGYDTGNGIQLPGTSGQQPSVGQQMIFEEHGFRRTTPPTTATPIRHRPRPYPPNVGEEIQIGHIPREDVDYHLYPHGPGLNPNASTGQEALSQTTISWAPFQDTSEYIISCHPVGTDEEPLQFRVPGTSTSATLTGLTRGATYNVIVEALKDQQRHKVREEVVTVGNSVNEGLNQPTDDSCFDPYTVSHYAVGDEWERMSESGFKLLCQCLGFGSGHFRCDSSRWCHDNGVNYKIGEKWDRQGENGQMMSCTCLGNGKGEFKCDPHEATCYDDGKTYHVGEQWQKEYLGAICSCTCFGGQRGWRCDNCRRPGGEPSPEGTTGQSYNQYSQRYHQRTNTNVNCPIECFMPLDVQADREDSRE

Sequence of VEGF-A165 (P15692 other isoform, or with tags, fused parts or gaps limits assumed): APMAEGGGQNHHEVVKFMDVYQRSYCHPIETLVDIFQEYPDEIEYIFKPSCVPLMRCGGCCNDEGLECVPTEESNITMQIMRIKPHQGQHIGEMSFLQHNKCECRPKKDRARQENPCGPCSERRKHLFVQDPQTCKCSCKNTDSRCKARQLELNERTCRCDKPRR
Sequence of human VEGF-A121-PlGF2123-144 (P15692 other isoform, or with tags, fused parts or gaps): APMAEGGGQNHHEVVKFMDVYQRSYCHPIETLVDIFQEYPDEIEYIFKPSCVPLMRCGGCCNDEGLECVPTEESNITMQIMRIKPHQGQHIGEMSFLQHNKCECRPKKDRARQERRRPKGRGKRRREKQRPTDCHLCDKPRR
Sequence of Tenascin C (P24821 23-2201): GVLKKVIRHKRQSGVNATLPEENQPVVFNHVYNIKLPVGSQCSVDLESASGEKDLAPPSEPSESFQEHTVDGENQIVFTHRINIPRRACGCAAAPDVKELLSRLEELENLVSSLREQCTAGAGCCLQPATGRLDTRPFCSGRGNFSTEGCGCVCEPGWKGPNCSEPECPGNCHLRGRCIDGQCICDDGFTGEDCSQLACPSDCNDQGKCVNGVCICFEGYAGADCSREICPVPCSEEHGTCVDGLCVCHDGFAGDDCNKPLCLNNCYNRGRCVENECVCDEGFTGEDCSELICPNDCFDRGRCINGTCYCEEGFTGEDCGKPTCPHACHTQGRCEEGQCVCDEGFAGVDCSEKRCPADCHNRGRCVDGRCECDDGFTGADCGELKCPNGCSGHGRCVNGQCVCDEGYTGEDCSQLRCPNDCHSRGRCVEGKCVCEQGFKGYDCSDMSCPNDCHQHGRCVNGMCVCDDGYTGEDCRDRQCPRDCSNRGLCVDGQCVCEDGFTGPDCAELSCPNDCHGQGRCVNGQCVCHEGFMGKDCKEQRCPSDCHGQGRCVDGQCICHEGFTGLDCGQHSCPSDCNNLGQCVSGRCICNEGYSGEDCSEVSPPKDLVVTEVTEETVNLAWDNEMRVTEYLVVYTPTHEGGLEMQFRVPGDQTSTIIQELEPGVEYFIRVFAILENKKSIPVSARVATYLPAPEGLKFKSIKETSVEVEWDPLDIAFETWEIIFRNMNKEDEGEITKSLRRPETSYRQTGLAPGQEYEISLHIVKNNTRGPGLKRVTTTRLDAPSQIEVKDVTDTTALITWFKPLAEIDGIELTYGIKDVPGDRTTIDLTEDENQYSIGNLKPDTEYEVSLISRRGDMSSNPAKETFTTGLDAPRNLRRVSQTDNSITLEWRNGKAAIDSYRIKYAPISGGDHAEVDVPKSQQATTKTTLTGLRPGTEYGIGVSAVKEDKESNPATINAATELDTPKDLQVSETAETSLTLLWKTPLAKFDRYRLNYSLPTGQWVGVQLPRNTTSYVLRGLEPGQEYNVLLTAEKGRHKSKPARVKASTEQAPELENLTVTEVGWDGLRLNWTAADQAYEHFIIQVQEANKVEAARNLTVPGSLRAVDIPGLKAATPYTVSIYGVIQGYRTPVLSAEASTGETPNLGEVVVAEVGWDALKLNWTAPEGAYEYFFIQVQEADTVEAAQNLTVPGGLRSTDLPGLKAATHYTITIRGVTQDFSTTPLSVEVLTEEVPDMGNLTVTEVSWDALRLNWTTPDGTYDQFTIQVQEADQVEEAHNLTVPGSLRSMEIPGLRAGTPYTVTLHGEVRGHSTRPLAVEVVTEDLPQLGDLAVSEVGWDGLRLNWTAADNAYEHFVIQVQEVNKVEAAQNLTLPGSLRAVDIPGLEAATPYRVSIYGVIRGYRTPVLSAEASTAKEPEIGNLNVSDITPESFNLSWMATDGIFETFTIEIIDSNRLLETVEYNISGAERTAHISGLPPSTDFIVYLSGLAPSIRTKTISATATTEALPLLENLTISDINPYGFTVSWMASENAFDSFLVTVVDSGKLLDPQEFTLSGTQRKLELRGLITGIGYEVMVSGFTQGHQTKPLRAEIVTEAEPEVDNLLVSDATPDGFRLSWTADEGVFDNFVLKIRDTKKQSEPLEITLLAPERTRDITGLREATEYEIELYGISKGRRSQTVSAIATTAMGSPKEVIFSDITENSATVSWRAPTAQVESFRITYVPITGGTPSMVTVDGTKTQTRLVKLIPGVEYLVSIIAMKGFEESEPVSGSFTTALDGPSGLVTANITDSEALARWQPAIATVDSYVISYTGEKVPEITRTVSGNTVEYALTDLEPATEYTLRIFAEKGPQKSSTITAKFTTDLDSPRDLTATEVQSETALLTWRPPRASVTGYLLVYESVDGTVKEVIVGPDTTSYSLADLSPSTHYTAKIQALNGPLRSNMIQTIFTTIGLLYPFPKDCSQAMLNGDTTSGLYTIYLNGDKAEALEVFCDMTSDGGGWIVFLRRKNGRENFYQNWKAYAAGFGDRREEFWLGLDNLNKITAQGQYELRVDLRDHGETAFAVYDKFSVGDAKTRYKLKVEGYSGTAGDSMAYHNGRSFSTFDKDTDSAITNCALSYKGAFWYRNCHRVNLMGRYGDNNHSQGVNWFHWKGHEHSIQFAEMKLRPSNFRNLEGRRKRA
Sequence of human PDGF-BB (P01127 82-190 limits assumed): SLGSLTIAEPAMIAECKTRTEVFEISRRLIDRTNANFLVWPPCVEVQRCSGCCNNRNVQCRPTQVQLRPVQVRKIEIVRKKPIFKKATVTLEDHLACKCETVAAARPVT

Substance “human VEGF-A121-PlGF2123-144 (from UniProt P15692 207-395) (ligand)” has a Kd (Fibrinogen) of 5.8 nM, a Kd (Osteopontin) of 26.4 nM and a Kd (Tenascin C) of 18 nM. It also gave a Kd (Vitronectin) of 2.8 nM and a Kd (Fibronectin) of 11.2 nM.

For “human PDGF-BB (from UniProt P01127 82-190) (ligand)”, the Kd (Fibrinogen) was 250 nM, the Kd (Osteopontin) was 20.3 nM and the Kd (Tenascin C) was 19 nM. For the same substance, the Kd (Vitronectin) was 10.5 nM and the Kd (Fibronectin) was 11.6 nM.

With “VEGF-A165 (from UniProt P15692 27-191) (ligand)” the Kd (Fibrinogen) was 302 nM, the Kd (Osteopontin) was 71 nM and the Kd (Tenascin C) was 115 nM. The Kd (Vitronectin) was 70.9 nM and the Kd (Fibronectin) was 97.2 nM.

In the case of PlGF2 (ligand), the Kd (Fibrinogen) is reported as 4.5 nM, the Kd (Osteopontin) is reported as 13.1 nM and the Kd (Tenascin C) is reported as 10.1 nM. It also gave a Kd (Vitronectin) of 2 nM and a Kd (Fibronectin) of 7.2 nM.
